According to a protein production outcome set (Wang et al. 2014):

Assay: label from the status in PepcDB records
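Note: failed if final PepcDB status was selected cloned or expressed and not failed if soluble or beyond.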

| Sequence | protein production |
| --- | --- |
| MKGEESVQLQSIEKRVSSGHSPSCAEILLSTIQEMNREENLLKALDLFTQRSLVLFDCDVAAIYLLEQGKYKPFSVSFRDDKDRETLMLREFPQDFREIGTEVVETDEEWVLALSHFGKTLGAYVLKGRRSQCRDEGSAVFVKQVISIISSFIFERILKIDSLSREQALTLLLRGTEILVRADSEEQLLSEAGEMAMEILFLPGGFFLLEGAGGTWEIRSPFGRLKQEMEWDWRTWVRQYISKEECCLRSAKVHFFDIENNPFKWERVWIHPLQTHSGVVGELWLMNAGKYLNDQEQEILTAFIRVVGVALETIRQREELARLANTDRLTGILNRQGFEQRVREEIASTLRRDSRFLFLVLDLDRFKQLNDTLGHPMGDRALKEIAQNLRCAVREQDIVARTGGDEFTVVLTDIALNEESLTVIERMRKSMHLEEYNLGVSIGVAEFPTEGRTYDELYRLADQRLYRGKNSGKGNIIAD | failed |
| MKGIINMATFKQYKTKSGAFWEAFTSVGKDTNGKAKRMHKRGFKTKKEAQLWTSNVQTDFTKNGFIANDNITFAELYTKWFNEDYKEQVKESTYMITDDIFRLHILPELGSQRVKRITVAQCQSIVHKWLNQGFKTYRRFRTYAISVFDFGVRMELTTRNPMAKTSIPKQKTKPQAPHVDFYEKSELLHFLDCASKHENPQAFMFFRLLAFTGLRRGEALALQWSDINFETNELTVNKTQAVGKRWRTIIQTPKTNTSYRTIVLDPDTAQWLHKWKMTQARQCFELGFNANDPSQLVFTNQQNKLMSPSTVNYFNWSICKKYGLRHIKIHAFRHTFCTLAFEAHAGINEVSKTLGHADLKITEQIYLHVTKKQKNETASKLARYMSEL | failed |
| MKGLVELGEKAPDFTLPNQDFEPVNLYEVLKRGRPAVLIFFPAAFSPVCTKELCTFRDKMAQLEKANAEVLAISVDSPWCLKKFKDENRLAFNLLSDYNREVIKLYNVYHEDLKGLKMVAKRAVFIVKPDGTVAYKWVTDNPLNEPDYDEVVREANKIAGELVA | not failed |
| MKGRLLQRLRQLSISNSLRGAFLTGALLTLIVSMVSLYSWHEQSSQVRYSLDEYFPRIHSAFLIEGNLNLAVDQLNEFLLAPNTTVRLQLRTQIIQHLDKIERLSQGLQLAERRQLAVILQDSRTLLAELDNALYNMFLVREKVSELSARIDWLHDDFTTELNSLVQDFTWQQGTLLDQIEANQGDAAQYLQRSREVQNEQQQVYTLARIENQIVDDLRDRLNELKSGNNDGMLVETHIRYLENLKKTADENIRALDDWPSTITLRQTIDELLEIGMVKNKMPDTMRDYVAAQKALLDASRAREATLGRFRTLLEAQLGSSHQQMQTFNQRLEQIVRVSGGLILVTTLLALLLAWGLNHYFIRSRLVKRFTALNQAVVQIGLGRTDSTIPVYGRDELGRIARLLRHTLGQLNMQRRQLEQEVAERKEIEADLRAMQDELIQTAKLAVVGQTMTTLAHEINQPLNALSMYLFTAGRAIEQGQSGQARNTLTKAEGLINRIDAIIRSLRQFTRRAELETPLYPVDLRQTFVAAWELLAMRHQSRQGALSLPTDTVWVSGDEVRIQQVLVNVLANALDACSHDAAIAVTWQTQGEALEVYIADNGPGWPGALLPSLLKPFTTSKAVGLGIGLSISVSLMAQMKGDLRLASTLTRNACVVLQFSVTDVDDVE | failed |
| MKGSVKKDKKTGKYFYIVDIDIDPLTGKRKQKKKRGFTSKKEAENALTNLLSEVHTGTYVEPSKLSYGEYLESWFNTKRHSVGIQTAKVLKGYLNSRIIPSLGNIKLAKLTSLHMQNYVNSLRDEGLKRGTIEKIIKVIRNSLEHAIDLELITKNVAAKTKLPKADKEELTVWNEQEVQLFLKAAQDGRYSIVFHMALVTGMRQGELLGLRWKDVDLEKGHLIISQTLSHDGKTFLVGGKTKSSLRKILLPASTIAKLKKHRAVILKEKLSQGEEYQDNDLVMCTPSGTPINPANVRRSLNALIQKAAVPKIRFHDLRHTHATLLLAKGVNVKVISERLGHSNIKITLDTYSHVLPTMQEDAVNKMEEIL | failed |
| MKGVIMIIDGMADRPLEKLSGRTPLEAASTPNMDRIAESGINGIMDPIKPGVRAGSDTSHLSILGYDPYRVYTGRGPFEAAGVGLDVKPGDIAFRCNFATADEDMIITDRRAGRIRSGTSSIARTINSMTIEGFEDVEIIFRESTGHRAVLVLRGPGLGDKVSDADPKVEGKPPKKIKALDGSPESRKTAEVLNRIVKESYEILRDHPVNTGRIERGEAPANIILPRGAGAVPHVEKFQERYDLKAACIAETGLIKGIGHLTGMDVIDVEGATGGIDTDLESIKNAISSAIAADYDFLLINIDGADEAGHDGDLEGKVRFIERVDSILGDLMGDDIYFILTADHSTPVSVMDHTGDPVPIAITGPEVRVDDVTSFSERAAAAGGLCRIRGSDVMDILLDLMNKKEKFGALEHHHHHH | failed |
| MKGVRSMMGNLVITIGRECGSAGRLIGQKLAADLGVKCYDKELLTLAAKNSGLCEELFKTHDEKPTSSFLYSLVMDTYSLGYNTSAYMDMPINHKIFLAQFDTIKKLAEEESCVIVGRCADYALADYPNTVSVFICGDEEDKIRHLMERHNVDEAKAKDIMIKTDKRRASYYNYYSSKRWGSCKSYDMCISSSAVGYDGAVDIIKEFAKKKQEFLKTKNYK | not failed |
| MKHAKKSLFTFIIFMTILSITFNPFSAKAAPLMLNLPAPQVDQLYIGDDYITGKLQQEVPMHYPGNAAYVLFNNKQYNITDYTVENDVNFRLKLPKTLEAGDTLNYFTITGNVLDPVAYPGQESYKLAGPFSPIEKANIQVNYVDETNQTLATSDTLSGKLGETYTTSPKAIDGYQVKETPTNATGTYTTNTETIQINYVYEKTAVEGANVSVEYINEATNESIAPTETLSGKIGTTFQAEVKEIDGYELSQVPSNQSGTYTDQTQSVIFKYKKITTPDEVAKDVTVTYKDTKGNQLADPVILKGDIGSTFETEAKSFKGYKLTKTPSNHSSVFTSDSQEVEYVYSKDDAVITPPVTPVNPDKPIINPVKPVNPATSTVPNKNISKKNTTKTVNQTGKTSTALQLPKTGDSENNLPLIIGVSLLISGVYIFTTRRKRVK | failed |
| MKHGMNARKQLWIAVICMTFVVILGTIGFMTIEEISLFQAFWMTMITVLTVGYGDAVPVTQAGKVFALLIIPVGVGIVTYAIGVVAAMIIEGNLFHAVRRKKMDKQIAQLKNHIIVCGCGRVGLQVVHELQEKNIPFVVVDKDESILEQEKLLFVHGDATEDQVLHNAGILKAAGLVAIVANDAENVFITLTARGLNDTIKIVARSEKPETEEKLRRAGANKVINPSSMAGIHIAKGIANPLTVHYIDTVLYGIEQSFVIEEILVGKDSILVGKSLLESNVRNQFDVTILAISRNGDIIHNPAGQEKLKERDMIIVFGSVEKLGQFEKELQSTR | failed |
| MKHIIILGDGMADWPAESLGNKTLLQYSSTPYMDKLAAMGRTGRLVTVAPGFHPGSEVANMSVMGYNLPKVYEGRGPLEAASIGVELQPGDMAMRCNIICIEDEKIKNHSAGHITTEEADVLVRYLEEKLGSDRIHFYTGVQYRHLLVIKGGNKQLDCTPPHDVPLQPFRPLMVKAEVPEAQETAGLINNLILASQELLADHPVNQKRIAEGKDPANSIWPWSPGYRPQMEPLSGKYPAIKKGAVISAVDLINGIGHYAGLRRIAVEGATGLYNTNYENKVAAALEALKTDDFVYLHIEASDEAGHEGDFKLKQFTIENLDKRVVGPVYEAVKDWDEPVAIAVLPDHPTPCELRTHTAEPVPFLIYYPGIEPDCVQTFDEVACVEGSYGILKEDEFMNEFMKK | failed |
| MKHIQINPSILSADLARLGDDVKAVLAAGADNIHFDVMDNHYVPNLTFGPMVLKALRDYGITAGMDVHLMVKPVDALIESFAKAGATSIVFHPEASEHIDRSLQLIKSFGIQAGLALNPATGIDCLKYVESNIDRVLIMSVNPGFGGQKFIPAMLDKAKEISKWISSTDRDILLEIDGGVNPYNIAEIAVCGVNAFVAGSAIFNSDSYKQTIDKMRDELNKV | not failed |
| MKHTLVITILIIMFSNGATAEEDKRSINESTTNMIAALQQKQWIHGSQDCKNNQDPAIEVFQYDESSYVLRQNKCLSYEAPFIYVLIGKEKILVVDTGATESAEEFPLYQTVQSLNQKHSDNGKTKEREIVVIHSHSHSDHYSADSQFVGQANVTVVAANNTGVNEFFDFEKWPEQQTNFELGGRSITIIPTPGHQEEAISVYDPQTKWLLTGDTFYPGYIYVKTWQDYKNSIARLVEFTNNHSVSAILGSHIEMTNKAGEYYEIGTIYQPNESSLLLTPSDLTALNEKLQQVDEPEKIAMDSLIVEPLGALPKLISSIAKWFIG | failed |
| MKIAILCASGKVGKEISKEALKRNLEPVCFVRNSSKMNEFLPQAKIVQRDLFELDSKDLIDFDIIIDAFGEWENLSLHKKHIECLSVILQGSKAKLFVVGGAGSLYMDENHTTRLMDMPDFPKEYLDIAKASAEVLEFLRNEKGFKWVYVSPSAIFSPDLPKSNHYKIIGEKFEVNANNESKISYSDYASAMIDIVLNSCYENTRIGVISL | failed |
| MKIAIVRLSALGDIIVSAVFLAVIKECLPNAQIEWFVDERFSAILEHSPYIDKLHPIALKSALKTLNPLKIFKLFKSLRAYEYDIIIDMQGLVKSALITQMLKAPKKVGFDYASAREGLSMFFYSQKVSIAYDEPVLKRNFTLLSHALNLPQKEISKEISESLSSRAKAFSYQPSPKIDALNLNKNKPKILFILETSKINKTYPIERFKELALILENFQICLLWHADEYKATTLYHALKHQRDVLLLPKLTLNEVKALLFKMDLIIGGDTGITHLAWALQKPSITLYGNTPMERFKLESPINVSLTGNSNANYHKKDFSIQNIEPKKIKECVLNILKEKE | failed |
| MKIALFGTSADPPTLAHRAILIWLAQHFDQVAVWAADNPFKQGPNPETGHWASLGDRQAMLKLLVEDVQKDYATVQIWEDLSDRRSLISLQRAQQRWGLEPDYALVVGADLIRQISQWYAVKELLPAVQLVIFPRPGYGINQADLDKLAQLGGHYQLVNQGDDQAITPPISSSIYRQIRDDDLIPDPVQSYIQQRQLYRQ | failed |
| MKIEQLYTGCLAEAAYYIESEGEAIIIDPLRDIQTYVQKIERNNVTLKYIFETHFHADFVSGHLDLAEATGATIVYGPKAETTFNSHIAYDGEKISIGKITLQVLHTPGHTQESSCYLLYDEDGNKHALFTGDTLFIGDVGRPDLAIKSDLTKEDLAGMLYDSLEEKIKPLPDAITIYPAHGAGSACGKNLSKETFDTLGSQKQKNYALKAADKETFIKQVLDDLQPAPSYFNMNALLNKEGPGSVSELIKQGSIAFDVQSFENLQRQTYAVLLDTRDAKEFKKGFIPGSINIGLNGQLAPWAGTLLTNSDKPILIITDPGKEEETIIRLARVGVDQVIGYLKDGYNSWQKANKPEENIETISAAELVEKLDENINILDVRKADEYEKGHLNAAQHLPLDYINDWITTLDKNKTYYVHCAGGYRSVITESILKSRNISNVIDVSGGYGAIKAAMEPTKKRWLNAFFSFMKVK | failed |
| MKIFNLLVGGAPENLPDNLNDFEGDWIGVDRGALKLIEMGLIPEVAVGDFDSVNDQEFKEIEANAKQVIKLDPVKDDTDTESGLKYALDHDPRAHIRVLGISGGRLDHLLANVLMVLQDRFRMFAEQIELIDRQNNIRFFNSGKHTVDKLEGFKYLSFIPLTQIDVLTLDDEKYELHNAMVSNARAYVSNEFIDSKATVYLSNGLVAVIQSKD | failed |
| MKIGIIGATGRAGSRILEEAKNRGHEVTAIVRNAGKITQTHKDINILQKDIFDLTLSDLSDQNVVVDAYGVSPDEAEKHVTSLDHLISVLNGTVSPRLLVVGGAASLQIDEDGNTLLESKGLREAPYYPTARAQAKQLEHLRSHQAEFSWTYISPSAMFEPGERTGDYQIGKDHLLFGSDGNSFISMEDYAIAVLDEIERPNHLNERFTVAGK | failed |
| MKIIGFACQWCAYQAADLAGSLKMKYPESIRLLRVPCSGRVNAEFILKALLSGADGVFVAGCPISECHYRSGNRIAKTKVALLKRLLPEFGLESGRVEFLQVSSADARKFVEFAKEFDERIRKLG | failed |
